Test: Phase 1/2 MRZ + BEV and MRZ monotherapy in recurrent G4 MG: adverse events, DLT
Conditions: MRZ+BEV
Protocol: The clinical trial was a Phase 1, dose-escalation (3+3 design) followed by dose-expansion at recommended Phase 2 Dose (RP2D).
The drugs were infused on 28-Day Cycles. Tumor response is assessed every other cycle by RANO criteria.
The safety data will be presented in individual listings and summary tables, including frequency tables for adverse events and frequency and shift tables for laboratory variables. The safety population will be all subjects who received at least one dose of either study drug in Phase 1 or MRZ in Phase 2.

Substance: bevacizumab [reference compound]
- Ear Infection: # pts, related to BEV (12 Sep. 2016): 0
- Epistaxis: # pts, related to BEV (12 Sep. 2016): 7
- Falls: # pts, related to BEV (12 Sep. 2016): 0
- Fatigue: # pts, related to BEV (12 Sep. 2016): 0
- Fracture of Femur: # pts, related to BEV (12 Sep. 2016): 0
- Hallucination: # pts, related to BEV (12 Sep. 2016): 0
- Headache: # pts, related to BEV (12 Sep. 2016): 1
- Hemiparesis: # pts, related to BEV (12 Sep. 2016): 0
- Hyperglycemia: # pts, related to BEV (12 Sep. 2016): 0
- Hypertension: # pts, related to BEV (12 Sep. 2016): 13
- Hypokalemia: # pts, related to BEV (12 Sep. 2016): 0
- Hyponatremia: # pts, related to BEV (12 Sep. 2016): 0
- Hypotension: # pts, related to BEV (12 Sep. 2016): 0
- Infusion Site Pain: # pts, related to BEV (12 Sep. 2016): 0
- Insomnia: # pts, related to BEV (12 Sep. 2016): 1
- Lymphocyte Count Decreased: # pts, related to BEV (12 Sep. 2016): 0
- Muscular Weakness: # pts, related to BEV (12 Sep. 2016): 0
- Nausea: # pts, related to BEV (12 Sep. 2016): 0
- Optic Nerve Disorder: # pts, related to BEV (12 Sep. 2016): 1
- Pyramidal Tract Syndrome: # pts, related to BEV (12 Sep. 2016): 0
- Tumor Metastasis: # pts, related to BEV (12 Sep. 2016): 0
- Vision Blurred: # pts, related to BEV (12 Sep. 2016): 0
- Vomiting: # pts, related to BEV (12 Sep. 2016): 0
- Anaemia: # events related to BEV (17 May 2016): 0
- Aphasia: # events related to BEV (17 May 2016): 0
- Appendicitis Perforated: # events related to BEV (17 May 2016): 0
- Asthenia: # events related to BEV (17 May 2016): 0
- Ataxia: # events related to BEV (17 May 2016): 0
- Confusional State: # events related to BEV (17 May 2016): 0
- Constipation: # events related to BEV (17 May 2016): 0
- Convulsion: # events related to BEV (17 May 2016): 0
- Delusion: # events related to BEV (17 May 2016): 0
- Diarrhoea: # events related to BEV (17 May 2016): 0
- Dizziness: # events related to BEV (17 May 2016): 0
- Dysarthria: # events related to BEV (17 May 2016): 0
- Dysphagia: # events related to BEV (17 May 2016): 0
- Dysphonia: # events related to BEV (17 May 2016): 10
- Dyspnoea: # events related to BEV (17 May 2016): 0
- Ear Infection: # events related to BEV (17 May 2016): 0
- Embolism: # events related to BEV (17 May 2016): 1
- Epistaxis: # events related to BEV (17 May 2016): 8
- Fatigue: # events related to BEV (17 May 2016): 0
- Hallucination: # events related to BEV (17 May 2016): 0
- Hemiparesis: # events related to BEV (17 May 2016): 0
- Hyperglycemia: # events related to BEV (17 May 2016): 0
- Hypokalemia: # events related to BEV (17 May 2016): 0
- Hypotension: # events related to BEV (17 May 2016): 0
- Insomnia: # events related to BEV (17 May 2016): 0
- Lymphocyte Count Decreased: # events related to BEV (17 May 2016): 0
- Muscular Weakness: # events related to BEV (17 May 2016): 0
- Nausea: # events related to BEV (17 May 2016): 0
- Pyramidal Tract Syndrome: # events related to BEV (17 May 2016): 0
- Vomiting: # events related to BEV (17 May 2016): 0
- Anaemia: # patients, AE related to labelled agent (BEV, MRZ, Both) (36 pts, as of 12 Sep. 2016): 0
- Anxiety: # patients, AE related to labelled agent (BEV, MRZ, Both) (36 pts, as of 12 Sep. 2016): 0
- Aphasia: # patients, AE related to labelled agent (BEV, MRZ, Both) (36 pts, as of 12 Sep. 2016): 0
- Appendicitis Perforated: # patients, AE related to labelled agent (BEV, MRZ, Both) (36 pts, as of 12 Sep. 2016): 0
- Asthenia: # patients, AE related to labelled agent (BEV, MRZ, Both) (36 pts, as of 12 Sep. 2016): 0
- Ataxia: # patients, AE related to labelled agent (BEV, MRZ, Both) (36 pts, as of 12 Sep. 2016): 0
- Confusional State: # patients, AE related to labelled agent (BEV, MRZ, Both) (36 pts, as of 12 Sep. 2016): 0
- Constipation: # patients, AE related to labelled agent (BEV, MRZ, Both) (36 pts, as of 12 Sep. 2016): 0
- Convulsion: # patients, AE related to labelled agent (BEV, MRZ, Both) (36 pts, as of 12 Sep. 2016): 0
- Delusion: # patients, AE related to labelled agent (BEV, MRZ, Both) (36 pts, as of 12 Sep. 2016): 0
- Depressed Level of Consciousness: # patients, AE related to labelled agent (BEV, MRZ, Both) (36 pts, as of 12 Sep. 2016): 0
- Diarrhoea: # patients, AE related to labelled agent (BEV, MRZ, Both) (36 pts, as of 12 Sep. 2016): 0
- Dizziness: # patients, AE related to labelled agent (BEV, MRZ, Both) (36 pts, as of 12 Sep. 2016): 0
- Dysarthria: # patients, AE related to labelled agent (BEV, MRZ, Both) (36 pts, as of 12 Sep. 2016): 0
- Dysphagia: # patients, AE related to labelled agent (BEV, MRZ, Both) (36 pts, as of 12 Sep. 2016): 0
- Dysphonia: # patients, AE related to labelled agent (BEV, MRZ, Both) (36 pts, as of 12 Sep. 2016): 10
- Dyspnoea: # patients, AE related to labelled agent (BEV, MRZ, Both) (36 pts, as of 12 Sep. 2016): 0
- Ear Infection: # patients, AE related to labelled agent (BEV, MRZ, Both) (36 pts, as of 12 Sep. 2016): 0
- Epistaxis: # patients, AE related to labelled agent (BEV, MRZ, Both) (36 pts, as of 12 Sep. 2016): 7
- Falls: # patients, AE related to labelled agent (BEV, MRZ, Both) (36 pts, as of 12 Sep. 2016): 0
- Fatigue: # patients, AE related to labelled agent (BEV, MRZ, Both) (36 pts, as of 12 Sep. 2016): 0
- Fracture of Femur: # patients, AE related to labelled agent (BEV, MRZ, Both) (36 pts, as of 12 Sep. 2016): 0
- Hallucination: # patients, AE related to labelled agent (BEV, MRZ, Both) (36 pts, as of 12 Sep. 2016): 0
- Headache: # patients, AE related to labelled agent (BEV, MRZ, Both) (36 pts, as of 12 Sep. 2016): 1
- Hemiparesis: # patients, AE related to labelled agent (BEV, MRZ, Both) (36 pts, as of 12 Sep. 2016): 0
- Hyperglycemia: # patients, AE related to labelled agent (BEV, MRZ, Both) (36 pts, as of 12 Sep. 2016): 0
- Hypertension: # patients, AE related to labelled agent (BEV, MRZ, Both) (36 pts, as of 12 Sep. 2016): 13
- Hypokalemia: # patients, AE related to labelled agent (BEV, MRZ, Both) (36 pts, as of 12 Sep. 2016): 0
- Hyponatremia: # patients, AE related to labelled agent (BEV, MRZ, Both) (36 pts, as of 12 Sep. 2016): 0
- Hypotension: # patients, AE related to labelled agent (BEV, MRZ, Both) (36 pts, as of 12 Sep. 2016): 0
- Infusion Site Pain: # patients, AE related to labelled agent (BEV, MRZ, Both) (36 pts, as of 12 Sep. 2016): 0
- Insomnia: # patients, AE related to labelled agent (BEV, MRZ, Both) (36 pts, as of 12 Sep. 2016): 1
- Lymphocyte Count Decreased: # patients, AE related to labelled agent (BEV, MRZ, Both) (36 pts, as of 12 Sep. 2016): 0
- Muscular Weakness: # patients, AE related to labelled agent (BEV, MRZ, Both) (36 pts, as of 12 Sep. 2016): 0
- Nausea: # patients, AE related to labelled agent (BEV, MRZ, Both) (36 pts, as of 12 Sep. 2016): 0
- Optic Nerve Disorder: # patients, AE related to labelled agent (BEV, MRZ, Both) (36 pts, as of 12 Sep. 2016): 1
- Pyramidal Tract Syndrome: # patients, AE related to labelled agent (BEV, MRZ, Both) (36 pts, as of 12 Sep. 2016): 0
- Tumor Metastasis: # patients, AE related to labelled agent (BEV, MRZ, Both) (36 pts, as of 12 Sep. 2016): 0
- Vision Blurred: # patients, AE related to labelled agent (BEV, MRZ, Both) (36 pts, as of 12 Sep. 2016): 0
- Vomiting: # patients, AE related to labelled agent (BEV, MRZ, Both) (36 pts, as of 12 Sep. 2016): 0

— patent publication US10894036B2, “Use of marizomib for the treatment of central nervous system (CNS) cancers” (Celgene International II Sàrl, priority 2016, dated 2021)
